Molecular target: Not1-3HA (UniProt P25655)
Assay: co-immunoprecipitation (TAP pull-down on IgG-coupled magnetic beads), Western blot quantification
Conditions: cells in exponential growth phase; n=5 biological replicates; parent: est. 1.0; read off a plot

UniProt P25655, sequence (P25655 whole entry): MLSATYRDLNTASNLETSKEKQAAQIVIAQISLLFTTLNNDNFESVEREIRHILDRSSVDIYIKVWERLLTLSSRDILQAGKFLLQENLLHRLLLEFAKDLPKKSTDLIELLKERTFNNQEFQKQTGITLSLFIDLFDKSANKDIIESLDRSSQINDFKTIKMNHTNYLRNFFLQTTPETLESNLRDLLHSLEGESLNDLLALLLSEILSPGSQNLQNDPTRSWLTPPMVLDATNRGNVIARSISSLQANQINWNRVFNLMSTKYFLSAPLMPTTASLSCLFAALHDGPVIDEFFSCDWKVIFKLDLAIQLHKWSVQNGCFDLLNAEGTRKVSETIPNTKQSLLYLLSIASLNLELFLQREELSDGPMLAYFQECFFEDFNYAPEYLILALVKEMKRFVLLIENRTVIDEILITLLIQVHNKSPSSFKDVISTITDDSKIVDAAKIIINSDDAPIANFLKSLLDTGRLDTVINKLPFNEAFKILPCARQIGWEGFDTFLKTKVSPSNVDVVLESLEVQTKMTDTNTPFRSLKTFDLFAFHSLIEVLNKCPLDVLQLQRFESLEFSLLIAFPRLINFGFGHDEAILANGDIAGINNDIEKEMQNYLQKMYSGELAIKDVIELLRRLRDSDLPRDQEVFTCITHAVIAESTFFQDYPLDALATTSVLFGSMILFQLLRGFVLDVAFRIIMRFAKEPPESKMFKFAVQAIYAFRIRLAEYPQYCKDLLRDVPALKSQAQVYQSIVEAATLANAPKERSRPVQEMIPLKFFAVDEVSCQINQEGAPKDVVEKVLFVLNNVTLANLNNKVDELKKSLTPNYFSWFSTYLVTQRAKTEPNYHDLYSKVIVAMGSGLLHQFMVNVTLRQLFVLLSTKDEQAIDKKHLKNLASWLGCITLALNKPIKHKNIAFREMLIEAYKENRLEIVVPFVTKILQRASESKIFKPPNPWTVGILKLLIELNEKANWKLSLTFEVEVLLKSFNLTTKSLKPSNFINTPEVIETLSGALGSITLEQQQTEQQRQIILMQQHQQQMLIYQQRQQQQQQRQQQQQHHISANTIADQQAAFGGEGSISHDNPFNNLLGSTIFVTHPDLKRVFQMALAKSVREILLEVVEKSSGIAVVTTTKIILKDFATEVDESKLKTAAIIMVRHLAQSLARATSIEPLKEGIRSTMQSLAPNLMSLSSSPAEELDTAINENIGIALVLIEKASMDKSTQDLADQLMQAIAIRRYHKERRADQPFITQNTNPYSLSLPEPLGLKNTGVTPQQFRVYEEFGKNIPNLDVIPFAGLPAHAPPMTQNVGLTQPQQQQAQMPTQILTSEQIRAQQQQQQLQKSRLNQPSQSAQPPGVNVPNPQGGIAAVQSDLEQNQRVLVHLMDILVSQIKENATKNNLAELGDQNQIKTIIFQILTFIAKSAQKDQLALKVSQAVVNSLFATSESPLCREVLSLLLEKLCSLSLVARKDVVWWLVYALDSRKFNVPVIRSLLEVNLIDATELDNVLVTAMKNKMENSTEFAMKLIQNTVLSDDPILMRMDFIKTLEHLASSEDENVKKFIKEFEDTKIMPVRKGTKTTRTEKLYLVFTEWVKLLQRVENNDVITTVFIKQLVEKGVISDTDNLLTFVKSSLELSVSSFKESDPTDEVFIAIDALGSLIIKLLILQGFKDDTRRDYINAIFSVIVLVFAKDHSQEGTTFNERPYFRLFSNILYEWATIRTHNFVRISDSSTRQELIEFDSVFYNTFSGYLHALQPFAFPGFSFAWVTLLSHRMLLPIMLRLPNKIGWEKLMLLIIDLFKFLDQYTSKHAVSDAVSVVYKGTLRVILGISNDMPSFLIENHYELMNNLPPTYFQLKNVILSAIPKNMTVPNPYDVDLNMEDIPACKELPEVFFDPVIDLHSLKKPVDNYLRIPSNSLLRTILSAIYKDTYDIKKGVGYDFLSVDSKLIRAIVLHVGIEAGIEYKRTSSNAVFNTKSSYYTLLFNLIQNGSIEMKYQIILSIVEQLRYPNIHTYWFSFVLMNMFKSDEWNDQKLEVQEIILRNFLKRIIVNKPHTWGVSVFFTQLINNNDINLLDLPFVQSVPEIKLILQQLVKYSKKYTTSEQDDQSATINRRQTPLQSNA

ratio to parent: 0.44
Substance: TAP-tagged Dhh1 (from UniProt P39517) R55E; F62E; Q282E; N284E; R355E

From PMC5096884
